Relative cAMP EC50 and cAMP Rel EC50 (1% HSA) data for twelve molecules are collected here from US20240270821A1, “GIP/GLP1/GCG TRI-RECEPTOR AGONISTS AND USES THEREOF” (priority 2023, published 2024).

Positions count from the first letter of the chain named.

The chains are these.
T1: human GIP receptor (human) (UniProt P48546)
T1 sequence (looked up): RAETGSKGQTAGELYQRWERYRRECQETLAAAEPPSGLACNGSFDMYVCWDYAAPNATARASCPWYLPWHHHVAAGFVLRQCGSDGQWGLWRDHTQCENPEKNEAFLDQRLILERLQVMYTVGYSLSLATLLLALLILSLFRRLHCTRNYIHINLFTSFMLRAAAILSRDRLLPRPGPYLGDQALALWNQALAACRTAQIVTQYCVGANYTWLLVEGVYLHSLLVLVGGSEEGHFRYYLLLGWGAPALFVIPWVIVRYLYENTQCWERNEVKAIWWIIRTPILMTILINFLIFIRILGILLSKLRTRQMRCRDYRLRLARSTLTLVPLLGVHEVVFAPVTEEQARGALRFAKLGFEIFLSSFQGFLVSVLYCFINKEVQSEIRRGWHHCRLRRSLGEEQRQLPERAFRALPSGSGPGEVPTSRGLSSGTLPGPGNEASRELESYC

B1: Example 1102 (peptide)
chain: YXQGTFTSDXSQXLDXKAQXAFIEYLIQXGPSSGEPPPSGSEE
modifications: not fully specified; non-natural residues, γGlu-C18 diacid acyl on K, C-terminal amide; synthetic construct; SITE 2: note = 2-Aminoisobutyric Acid; SITE 10: note = 3-(4-Pyridyl)-L-alanine; SITE 13: note = alpha-methyl-leucine; SITE 16: note = L-ornithine; SITE 17: note = Lysine is chemically modified through conjugation of the epsilon-amino group of the Lysine side chain with D-Glutami
B2: Example 1083 (peptide)
chain: YXQGTFTSDXSQXLDXKAQXAFIQXLLEGGPSSGAPPPSGSEEE
modifications: Aib, 4Pal, Orn, Me4Pal, αMeY; acylated lysine; amide; synthetic construct; SITE 2: note = 2-Aminoisobutyric Acid; SITE 10: note = 3-(4-Pyridyl)-L-alanine; SITE 13: note = alpha-methyl-leucine; SITE 16: note = L-ornithine; SITE 17: note = Lysine is chemically modified through conjugation of the epsilon-amino group of the Lysine side chain with D-Glutami
B3: Example 1084 (peptide)
chain: B2 chain with A21Q, Q24E, E28A
modifications: not fully specified; Lys acylated γGlu-C18 diacid; non-natural residues; C-terminal amide; synthetic construct; SITE 2: note = 2-Aminoisobutyric Acid; SITE 10: note = 3-(4-Pyridyl)-L-alanine; SITE 13: note = alpha-methyl-leucine; SITE 16: note = L-ornithine; SITE 17: note = Lysine is chemically modified through conjugation of the epsilon-amino group of the Lysine side chain with D-Glutami
B4: Example 1085 (peptide)
chain: YXQGTFTSDXSQXLDKKAQXAFIEYLIAGGPSSGAPPPSGE
modifications: non-natural residues; lipidated Lys; C-terminal amide; synthetic construct; SITE 2: note = 2-Aminoisobutyric Acid; SITE 10: note = 3-(4-Pyridyl)-L-alanine; SITE 13: note = alpha-methyl-leucine; SITE 17: note = Lysine is chemically modified through conjugation of the epsilon-amino group of the Lysine side chain with D-Glutamic acid-(gamma-Glu)-CO-(CH2)16
B5: Example 1086 (peptide)
chain: B4 chain
modifications: Aib, 4Pal, αMeL, Me4Pal; acylated K; C-terminal amide; synthetic construct; SITE 2: note = 2-Aminoisobutyric Acid; SITE 10: note = 3-(4-Pyridyl)-L-alanine; SITE 13: note = alpha-methyl-leucine; SITE 17: note = Lysine is chemically modified through conjugation of the epsilon-amino group of the Lysine side chain with (Glu)-(gamma-Glu)-CO-(CH2)16-CO2H; SIT
B6: Example 1087 (peptide)
chain: B4 chain
modifications: Aib, 4Pal, αMeL, Me4Pal; acylated lysine; amide; synthetic construct; SITE 2: note = 2-Aminoisobutyric Acid; SITE 10: note = 3-(4-Pyridyl)-L-alanine; SITE 13: note = alpha-methyl-leucine; SITE 17: note = Lysine is chemically modified through conjugation of the epsilon-amino group of the Lysine side chain with (Glu)2-(gamma-Glu)-CO-(CH2)16-CO2H; SI
B7: Example 1093 (peptide)
chain: B1 chain with Y25X, Q28E
modifications: non-natural residues, C18 diacid-(γGlu)2 acyl on K, C-terminal amide; synthetic construct; SITE 2: note = 2-Aminoisobutyric Acid; SITE 10: note = 3-(4-Pyridyl)-L-alanine; SITE 13: note = alpha-methyl-leucine; SITE 16: note = L-ornithine; SITE 17: note = Lysine is chemically modified through conjugation of the epsilon-amino group of the Lysine side chain with (gamma-Gl)
B8: Example 1104 (peptide)
chain: B1 chain with A21Q, Y25X, Q28E
modifications: not fully specified; non-natural residues; Lys acylated C18 diacid via γGlu; C-term amide; synthetic construct; SITE 2: note = 2-Aminoisobutyric Acid; SITE 10: note = 3-(4-Pyridyl)-L-alanine; SITE 13: note = alpha-methyl-leucine; SITE 16: note = L-ornithine; SITE 17: note = Lysine is chemically modified through conjugation of the epsilon-amino group of the Lysine side chain with D-Glutami
B9: Example 1098 (peptide)
chain: B1 chain with A21Q, Y25X, Q28E
modifications: non-natural residues, acylated Lys (AEEA-γGlu-C18 diacid), C-terminal amide; synthetic construct; SITE 2: note = 2-Aminoisobutyric Acid; SITE 10: note = 3-(4-Pyridyl)-L-alanine; SITE 13: note = alpha-methyl-leucine; SITE 16: note = L-ornithine; SITE 17: note = Lysine is chemically modified through conjugation of the epsilon-amino group of the Lysine side chain with (2-[2-(2-
B10: Example 1103 (peptide)
chain: B1 chain with Y25X, Q28E
modifications: not fully specified; Aib, 4Pal, Orn, Me4Pal, αMeY; lipidated Lys; C-terminal amide; synthetic construct; SITE 2: note = 2-Aminoisobutyric Acid; SITE 10: note = 3-(4-Pyridyl)-L-alanine; SITE 13: note = alpha-methyl-leucine; SITE 16: note = L-ornithine; SITE 17: note = Lysine is chemically modified through conjugation of the epsilon-amino group of the Lysine side chain with D-Glutami
B11: Example 1097 (peptide)
chain: B1 chain with Y25X, Q28E
modifications: non-natural residues; acylated Lys; C-terminal amide; synthetic construct; SITE 2: note = 2-Aminoisobutyric Acid; SITE 10: note = 3-(4-Pyridyl)-L-alanine; SITE 13: note = alpha-methyl-leucine; SITE 16: note = L-ornithine; SITE 17: note = Lysine is chemically modified through conjugation of the epsilon-amino group of the Lysine side chain with (2-[2-(2-
B12: Example 1100 (peptide)
chain: B1 chain with A21Q, Y25X, Q28A
modifications: non-natural residues; Lys acylated AEEA-γGlu-C18 diacid; C-terminal amide; synthetic construct; SITE 2: note = 2-Aminoisobutyric Acid; SITE 10: note = 3-(4-Pyridyl)-L-alanine; SITE 13: note = alpha-methyl-leucine; SITE 16: note = L-ornithine; SITE 17: note = Lysine is chemically modified through conjugation of the epsilon-amino group of the Lysine side chain with (2-[2-(2-

Chain of human glucagon receptor (human) (P47871 26-477): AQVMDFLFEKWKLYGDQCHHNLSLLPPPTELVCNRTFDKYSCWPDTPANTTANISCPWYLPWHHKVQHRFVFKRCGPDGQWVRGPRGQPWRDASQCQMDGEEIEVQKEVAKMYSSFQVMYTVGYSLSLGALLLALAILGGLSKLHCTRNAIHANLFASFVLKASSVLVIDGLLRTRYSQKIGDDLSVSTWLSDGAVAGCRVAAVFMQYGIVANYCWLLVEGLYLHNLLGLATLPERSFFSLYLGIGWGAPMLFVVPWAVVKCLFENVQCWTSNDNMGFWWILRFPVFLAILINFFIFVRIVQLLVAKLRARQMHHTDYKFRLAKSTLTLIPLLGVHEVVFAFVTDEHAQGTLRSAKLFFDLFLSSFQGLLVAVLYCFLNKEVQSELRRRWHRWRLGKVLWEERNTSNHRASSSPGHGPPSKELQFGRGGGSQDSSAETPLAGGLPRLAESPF

The target of the first test is hGLP-1R (Homo sapiens, UniProt P43220). The experiment in a line: cell-based or functional assay.
Chain of hGLP-1R (P43220 24-463): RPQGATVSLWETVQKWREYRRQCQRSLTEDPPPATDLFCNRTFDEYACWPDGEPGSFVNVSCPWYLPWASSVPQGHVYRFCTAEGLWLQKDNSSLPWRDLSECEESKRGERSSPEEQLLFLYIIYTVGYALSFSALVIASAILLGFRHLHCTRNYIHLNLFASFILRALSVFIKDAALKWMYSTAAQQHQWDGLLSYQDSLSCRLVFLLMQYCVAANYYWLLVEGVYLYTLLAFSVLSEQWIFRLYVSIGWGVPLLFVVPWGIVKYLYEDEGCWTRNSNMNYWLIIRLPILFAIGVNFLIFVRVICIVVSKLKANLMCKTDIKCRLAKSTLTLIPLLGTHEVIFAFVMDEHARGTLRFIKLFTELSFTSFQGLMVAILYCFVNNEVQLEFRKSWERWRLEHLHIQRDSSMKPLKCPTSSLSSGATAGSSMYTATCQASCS
For B1, the Relative cAMP EC50 was determined as 2.18 nM and the cAMP Rel EC50 (1% HSA) is 295 nM.

As for B2, the Relative cAMP EC50 came to 7.76 nM and the cAMP Rel EC50 (1% HSA) is 547 nM.

In turn, B3 registered a Relative cAMP EC50 of 10.3 nM and a cAMP Rel EC50 (1% HSA) of 761 nM.

Take B4: the Relative cAMP EC50 worked out at 1.28 nM and the cAMP Rel EC50 (1% HSA) was 188 nM.

With B5, the Relative cAMP EC50 worked out at 1.23 nM and the cAMP Rel EC50 (1% HSA) came to 496 nM.

With B6, the Relative cAMP EC50 worked out at 2.63 nM and the cAMP Rel EC50 (1% HSA) turned out to be 439 nM.

The molecule B7 showed a Relative cAMP EC50 of 0.954 nM and a cAMP Rel EC50 (1% HSA) of 141 nM.

The molecule B8 yielded a Relative cAMP EC50 of 1.7 nM and a cAMP Rel EC50 (1% HSA) of 272 nM.

B9 showed a Relative cAMP EC50 of 1.22 nM and a cAMP Rel EC50 (1% HSA) of 184 nM.

For B10, the Relative cAMP EC50 is 1.06 nM and the cAMP Rel EC50 (1% HSA) came out at 183 nM.

In turn, B11 came in with a Relative cAMP EC50 of 1.59 nM and a cAMP Rel EC50 (1% HSA) of 141 nM.

Take B12: the Relative cAMP EC50 is 0.514 nM and the cAMP Rel EC50 (1% HSA) turned out to be 77.2 nM.

Another test concerns the target T1, human GIP receptor (human). The experiment in a line: cell-based or functional assay.
Molecule B1 had a Relative cAMP EC50 of 0.0418 nM and a cAMP Rel EC50 (1% HSA) of 5.12 nM.

Take B2: the Relative cAMP EC50 is 0.328 nM and the cAMP Rel EC50 (1% HSA) is 20.5 nM.

B3 registered a Relative cAMP EC50 of 0.0975 nM and a cAMP Rel EC50 (1% HSA) of 17.2 nM.

On to B4, for which the Relative cAMP EC50 was 0.0827 nM and the cAMP Rel EC50 (1% HSA) is 9.84 nM.

In the case of B5, the Relative cAMP EC50 came out at 0.117 nM and the cAMP Rel EC50 (1% HSA) was 21.2 nM.

In turn, B6 had a Relative cAMP EC50 of 0.207 nM and a cAMP Rel EC50 (1% HSA) of 23.3 nM.

In the case of B7, the Relative cAMP EC50 amounted to 0.152 nM and the cAMP Rel EC50 (1% HSA) was found to be 26.8 nM.

For B8, the Relative cAMP EC50 was 0.09 nM and the cAMP Rel EC50 (1% HSA) stood at 13.9 nM.

B9 showed a Relative cAMP EC50 of 0.201 nM and a cAMP Rel EC50 (1% HSA) of 31.2 nM.

For B10, the Relative cAMP EC50 is 0.0723 nM and the cAMP Rel EC50 (1% HSA) stood at 19.5 nM.

On to B11, for which the Relative cAMP EC50 is 0.136 nM and the cAMP Rel EC50 (1% HSA) amounted to 27.3 nM.

With B12, the Relative cAMP EC50 was 0.0694 nM and the cAMP Rel EC50 (1% HSA) was 9.04 nM.

Another test addresses human glucagon receptor (human) (UniProt P47871). The experiment in a line: cell-based or functional assay.
As to B1, the Relative cAMP EC50 is 4.37 nM and the cAMP Rel EC50 (1% HSA) was 516 nM.

In turn, B2 had a Relative cAMP EC50 of 15 nM and a cAMP Rel EC50 (1% HSA) of 1030 nM.

B3 came in with a Relative cAMP EC50 of 11.5 nM and a cAMP Rel EC50 (1% HSA) of 1390 nM.

B4 gave a Relative cAMP EC50 of 11.6 nM and a cAMP Rel EC50 (1% HSA) of 1370 nM.

In the case of B5, the Relative cAMP EC50 was 12 nM and the cAMP Rel EC50 (1% HSA) was 3140 nM.

B6 had a Relative cAMP EC50 of 15.4 nM and a cAMP Rel EC50 (1% HSA) of 2460 nM.

The molecule B7 had a Relative cAMP EC50 of 7.72 nM and a cAMP Rel EC50 (1% HSA) of 958 nM.

Regarding B8, the Relative cAMP EC50 amounted to 11.1 nM and the cAMP Rel EC50 (1% HSA) worked out at 1470 nM.

Consider B9, for which the Relative cAMP EC50 is 6.2 nM and the cAMP Rel EC50 (1% HSA) was 994 nM.

Consider B10, for which the Relative cAMP EC50 was found to be 11.1 nM and the cAMP Rel EC50 (1% HSA) was 1350 nM.

Molecule B11 came in with a Relative cAMP EC50 of 6.16 nM and a cAMP Rel EC50 (1% HSA) of 752 nM.

Take B12: the Relative cAMP EC50 came to 5.28 nM and the cAMP Rel EC50 (1% HSA) came to 577 nM.
